Data on three substances can be found in article PMC2187331.

Where two headings read alike, the source gives them in different places.

What all share (assay): rosette formation
Assay [1] has as its target C receptor type 2, the C3d receptor (human (endogenous in Raji)) (UniProt P20023).
Assay [2] addresses C receptor type 1, the C3b receptor (human (endogenous in erythrocytes, monocytes and neutrophils)) (UniProt P17927).
The target of assay [3] is C receptor type 3, iC3b receptor (human (endogenous in monocytes and neutrophils)) (UniProt P11215).
The target of assay [4] is C receptor type 1, the C3b receptor (human (endogenous in erythrocytes, monocytes and neutrophils)) (UniProt P17927). This is another data set of the same source.
Sequence of C receptor type 1, the C3b receptor (human (endogenous in erythrocytes, monocytes and neutrophils)) (P17927 42-2039): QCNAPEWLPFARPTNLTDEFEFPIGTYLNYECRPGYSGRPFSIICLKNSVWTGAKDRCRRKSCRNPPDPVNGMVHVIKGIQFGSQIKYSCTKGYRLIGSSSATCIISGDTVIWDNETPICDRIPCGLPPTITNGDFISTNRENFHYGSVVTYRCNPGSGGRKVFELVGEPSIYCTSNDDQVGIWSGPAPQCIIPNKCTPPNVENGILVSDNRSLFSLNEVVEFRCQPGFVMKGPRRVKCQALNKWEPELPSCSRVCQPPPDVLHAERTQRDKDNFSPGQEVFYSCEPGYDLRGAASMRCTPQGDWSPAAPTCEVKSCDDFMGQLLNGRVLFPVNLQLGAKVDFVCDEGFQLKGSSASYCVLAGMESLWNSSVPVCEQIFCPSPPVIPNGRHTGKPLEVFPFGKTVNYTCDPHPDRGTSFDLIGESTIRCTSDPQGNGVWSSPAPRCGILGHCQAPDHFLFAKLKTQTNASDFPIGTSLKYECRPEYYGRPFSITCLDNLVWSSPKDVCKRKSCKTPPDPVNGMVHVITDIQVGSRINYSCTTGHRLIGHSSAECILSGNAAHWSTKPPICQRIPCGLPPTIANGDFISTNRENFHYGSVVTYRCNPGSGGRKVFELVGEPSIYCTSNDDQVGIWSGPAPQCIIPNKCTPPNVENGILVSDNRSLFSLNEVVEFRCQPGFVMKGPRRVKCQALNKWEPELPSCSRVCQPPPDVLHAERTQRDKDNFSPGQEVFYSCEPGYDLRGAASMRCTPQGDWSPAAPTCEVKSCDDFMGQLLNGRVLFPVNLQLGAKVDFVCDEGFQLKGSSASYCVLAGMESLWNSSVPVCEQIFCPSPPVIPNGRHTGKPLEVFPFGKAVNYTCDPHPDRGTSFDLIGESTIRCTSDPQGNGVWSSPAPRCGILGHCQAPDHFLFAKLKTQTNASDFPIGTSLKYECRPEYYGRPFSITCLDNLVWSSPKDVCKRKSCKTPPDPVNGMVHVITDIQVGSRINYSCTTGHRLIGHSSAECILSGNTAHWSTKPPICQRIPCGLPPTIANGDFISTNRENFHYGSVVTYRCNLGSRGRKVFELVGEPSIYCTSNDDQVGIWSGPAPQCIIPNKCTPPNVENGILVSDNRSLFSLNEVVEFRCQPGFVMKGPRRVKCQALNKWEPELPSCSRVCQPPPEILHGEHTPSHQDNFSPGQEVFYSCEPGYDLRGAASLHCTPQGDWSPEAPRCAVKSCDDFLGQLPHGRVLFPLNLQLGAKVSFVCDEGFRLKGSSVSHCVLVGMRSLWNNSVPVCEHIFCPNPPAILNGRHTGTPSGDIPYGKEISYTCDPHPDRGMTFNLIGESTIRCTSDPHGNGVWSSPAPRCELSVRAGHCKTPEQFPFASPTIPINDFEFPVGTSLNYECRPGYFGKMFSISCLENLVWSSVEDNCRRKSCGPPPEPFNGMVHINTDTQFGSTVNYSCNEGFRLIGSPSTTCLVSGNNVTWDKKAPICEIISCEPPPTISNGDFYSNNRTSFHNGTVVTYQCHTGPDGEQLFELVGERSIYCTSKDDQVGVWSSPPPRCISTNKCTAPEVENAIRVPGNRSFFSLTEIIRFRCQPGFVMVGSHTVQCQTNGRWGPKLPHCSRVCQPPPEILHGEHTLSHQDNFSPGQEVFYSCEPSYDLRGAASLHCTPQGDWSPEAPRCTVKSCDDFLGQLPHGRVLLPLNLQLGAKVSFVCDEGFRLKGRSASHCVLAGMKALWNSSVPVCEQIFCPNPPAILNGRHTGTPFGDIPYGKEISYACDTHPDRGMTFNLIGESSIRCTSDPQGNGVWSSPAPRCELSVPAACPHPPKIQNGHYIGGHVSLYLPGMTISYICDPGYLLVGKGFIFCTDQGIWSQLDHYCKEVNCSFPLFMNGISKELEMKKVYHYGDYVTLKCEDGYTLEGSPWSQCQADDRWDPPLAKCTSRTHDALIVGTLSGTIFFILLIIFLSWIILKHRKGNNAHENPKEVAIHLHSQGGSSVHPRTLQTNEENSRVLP
Assay [5] has the same target. The source holds these as a separate data set.
Assay [6] addresses C receptor type 3, iC3b receptor (human (endogenous in monocytes and neutrophils)) (UniProt P11215). The source holds these as a separate data set.
Assay [7] has as its target C receptor type 1, the C3b receptor (human (endogenous in erythrocytes, monocytes and neutrophils)) (UniProt P17927). This is another data set of the same source.

Sequence of C receptor type 2, the C3d receptor (human (endogenous in Raji)) (P20023 21-1033): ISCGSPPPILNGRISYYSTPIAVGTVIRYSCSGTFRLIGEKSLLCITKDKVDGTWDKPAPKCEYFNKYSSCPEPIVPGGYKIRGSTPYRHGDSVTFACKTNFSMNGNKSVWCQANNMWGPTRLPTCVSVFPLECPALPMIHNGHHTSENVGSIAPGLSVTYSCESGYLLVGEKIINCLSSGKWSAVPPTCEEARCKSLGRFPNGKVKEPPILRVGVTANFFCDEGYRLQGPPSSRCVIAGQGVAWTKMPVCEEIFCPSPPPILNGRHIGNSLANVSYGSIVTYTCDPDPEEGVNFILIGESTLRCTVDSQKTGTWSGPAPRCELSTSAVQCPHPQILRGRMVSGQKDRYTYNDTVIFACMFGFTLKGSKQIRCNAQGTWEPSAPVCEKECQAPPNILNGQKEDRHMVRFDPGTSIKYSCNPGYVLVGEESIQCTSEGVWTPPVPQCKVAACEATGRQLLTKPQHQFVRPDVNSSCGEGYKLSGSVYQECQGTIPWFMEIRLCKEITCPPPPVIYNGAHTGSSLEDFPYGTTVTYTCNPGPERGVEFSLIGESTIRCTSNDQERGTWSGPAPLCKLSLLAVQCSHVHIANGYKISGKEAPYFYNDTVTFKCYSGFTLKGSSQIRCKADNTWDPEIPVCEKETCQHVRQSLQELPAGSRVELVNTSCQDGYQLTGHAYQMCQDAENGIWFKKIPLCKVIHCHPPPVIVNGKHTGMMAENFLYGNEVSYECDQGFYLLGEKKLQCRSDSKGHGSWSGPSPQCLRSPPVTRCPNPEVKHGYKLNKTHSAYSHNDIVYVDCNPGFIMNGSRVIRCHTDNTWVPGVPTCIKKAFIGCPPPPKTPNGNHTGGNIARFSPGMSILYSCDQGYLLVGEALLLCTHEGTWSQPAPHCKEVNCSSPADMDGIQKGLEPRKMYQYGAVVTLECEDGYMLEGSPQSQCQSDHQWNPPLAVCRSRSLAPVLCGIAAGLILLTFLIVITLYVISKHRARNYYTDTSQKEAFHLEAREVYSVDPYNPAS
Sequence of C3c (P01024 23-1663): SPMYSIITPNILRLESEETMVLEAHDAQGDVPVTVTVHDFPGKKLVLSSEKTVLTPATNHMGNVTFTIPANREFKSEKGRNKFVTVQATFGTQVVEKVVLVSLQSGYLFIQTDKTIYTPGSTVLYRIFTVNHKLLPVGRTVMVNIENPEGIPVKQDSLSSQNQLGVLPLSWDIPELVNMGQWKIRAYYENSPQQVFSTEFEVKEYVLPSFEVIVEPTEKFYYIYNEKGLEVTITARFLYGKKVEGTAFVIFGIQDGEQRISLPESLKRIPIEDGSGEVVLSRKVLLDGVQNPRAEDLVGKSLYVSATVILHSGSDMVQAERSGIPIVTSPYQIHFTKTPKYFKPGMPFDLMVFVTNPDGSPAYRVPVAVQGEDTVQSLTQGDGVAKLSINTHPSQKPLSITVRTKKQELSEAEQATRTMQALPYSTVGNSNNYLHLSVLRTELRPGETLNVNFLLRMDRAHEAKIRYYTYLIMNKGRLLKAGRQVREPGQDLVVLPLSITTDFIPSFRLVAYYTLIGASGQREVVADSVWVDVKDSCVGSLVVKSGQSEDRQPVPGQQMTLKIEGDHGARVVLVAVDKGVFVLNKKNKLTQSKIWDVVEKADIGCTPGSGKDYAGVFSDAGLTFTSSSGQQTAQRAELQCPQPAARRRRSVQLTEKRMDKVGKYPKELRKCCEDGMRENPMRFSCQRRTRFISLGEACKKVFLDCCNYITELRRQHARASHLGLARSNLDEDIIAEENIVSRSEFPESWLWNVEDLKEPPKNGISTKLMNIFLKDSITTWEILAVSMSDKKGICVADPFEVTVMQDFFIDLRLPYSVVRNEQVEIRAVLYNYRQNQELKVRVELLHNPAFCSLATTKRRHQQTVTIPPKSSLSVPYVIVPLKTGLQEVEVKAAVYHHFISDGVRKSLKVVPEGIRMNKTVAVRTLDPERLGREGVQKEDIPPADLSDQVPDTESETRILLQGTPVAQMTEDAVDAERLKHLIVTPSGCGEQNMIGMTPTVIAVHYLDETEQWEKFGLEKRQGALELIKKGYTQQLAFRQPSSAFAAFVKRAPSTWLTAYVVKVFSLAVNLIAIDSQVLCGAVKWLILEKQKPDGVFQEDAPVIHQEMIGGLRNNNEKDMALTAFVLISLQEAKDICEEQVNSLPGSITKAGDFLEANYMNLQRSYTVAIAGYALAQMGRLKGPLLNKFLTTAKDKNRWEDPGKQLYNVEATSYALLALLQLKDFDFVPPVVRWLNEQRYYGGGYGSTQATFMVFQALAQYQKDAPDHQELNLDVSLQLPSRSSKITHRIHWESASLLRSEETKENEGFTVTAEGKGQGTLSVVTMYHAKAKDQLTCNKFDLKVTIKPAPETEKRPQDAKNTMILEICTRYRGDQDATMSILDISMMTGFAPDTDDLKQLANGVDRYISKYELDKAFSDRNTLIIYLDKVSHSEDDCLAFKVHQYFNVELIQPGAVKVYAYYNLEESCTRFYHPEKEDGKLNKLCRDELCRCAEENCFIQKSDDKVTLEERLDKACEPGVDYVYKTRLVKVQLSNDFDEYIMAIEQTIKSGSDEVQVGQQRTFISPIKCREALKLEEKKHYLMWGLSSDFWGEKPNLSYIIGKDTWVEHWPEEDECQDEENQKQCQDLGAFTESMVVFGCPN

With “C3d,g (from UniProt P01024 1002-1303) (domain or fragment)”, in assay [1], the % rosette formation (C3d,g microspheres, Raji cells, buffer) is 99% and the % rosette formation (Raji cells, 6.9 x 10^4 C3d,g per E, buffer) was found to be 99%.
Regarding “C3c (from UniProt P01024 23-667; P01024 749-954; P01024 1321-1663) (domain or fragment)”, in assay [2], the % rosette formation (C3c microspheres, erythrocytes, buffer) stood at 72% and the % rosette formation (C3c microspheres, monocytes, buffer) is 80%.
On to “iC3b (inactivated C3b) (from UniProt P01024 23-667; P01024 749-1663; P01024 749-1663) (domain or fragment)”, for which, in assay [3], the % rosette formation (monocytes treated with anti-CR1, 14 x 10^3 iC3b per E) was 74%; the % rosette formation (monocytes treated with anti-CR1, 65 x 10^3 iC3b per E) amounted to 85%; the % rosette formation (monocytes, 7.9 x 10^3 iC3b per E) is 59%; the % rosette formation (neutrophils treated with anti-CR1, 14 x 10^3 iC3b per E) was 79%. In assay [3], this substance displayed a % rosette formation (neutrophils treated with anti-CR1, 65 x 10^3 iC3b per E) of 92%. In assay [4], this substance displayed a % rosette formation (erythrocytes, 37 x 10^3 iC3b per E) of 15%; a % rosette formation (erythrocytes, 65 x 10^3 iC3b per E) of 22%; a % rosette formation (monocytes treated with anti-Mac-1, 14 x 10^3 iC3b per E) of 5%; a % rosette formation (monocytes treated with anti-Mac-1, 65 x 10^3 iC3b per E) of 75%. In assay [4], the % rosette formation (neutrophils treated with anti-Mac-1, 14 x 10^3 iC3b per E) stood at 4% and the % rosette formation (neutrophils treated with anti-Mac-1, 65 x 10^3 iC3b per E) amounted to 95%. Moreover, in assay [5], the % rosette formation (erythrocytes, 37 x 10^3 iC3b per E) was determined as 5%; the % rosette formation (erythrocytes, 65 x 10^3 iC3b per E) was found to be 8%; the % rosette formation (monocytes treated with anti-Mac-1, 14 x 10^3 iC3b per E) was determined as 6%; the % rosette formation (monocytes treated with anti-Mac-1, 65 x 10^3 iC3b per E) was determined as 74%. Further, in assay [5], the % rosette formation (monocytes, 14 x 10^3 iC3b per E) was determined as 8%; the % rosette formation (monocytes, 65 x 10^3 iC3b per E) was found to be 77%; the % rosette formation (neutrophils treated with anti-Mac-1, 14 x 10^3 iC3b per E) was 3%; the % rosette formation (neutrophils treated with anti-Mac-1, 65 x 10^3 iC3b per E) worked out at 93%. Also, in assay [5], the % rosette formation (neutrophils, 14 x 10^3 iC3b per E) turned out to be 2%; the % rosette formation (neutrophils, 37 x 10^3 iC3b per E) amounted to 78%; the % rosette formation (neutrophils, 65 x 10^3 iC3b per E) stood at 97%. Further, in assay [6], the % rosette formation (anti-CR1-treated monocytes, 1.4 x 10^4 iC3b per E, BDVA) came out at 84%; the % rosette formation (anti-CR1-treated monocytes, 7.9 x 10^3 iC3b per E, BDVA) is 44%; the % rosette formation (monocytes treated with anti-CR1, 14 x 10^3 iC3b per E) is 95%; the % rosette formation (monocytes treated with anti-CR1, 65 x 10^3 iC3b per E) was determined as 94%. In assay [6], this substance registered a % rosette formation (monocytes, 7.9 x 10^3 iC3b per E) of 86%; a % rosette formation (neutrophils treated with anti-CR1, 14 x 10^3 iC3b per E) of 100%; a % rosette formation (neutrophils treated with anti-CR1, 65 x 10^3 iC3b per E) of 100%. Moreover, in assay [2], the % rosette formation (erythrocytes, 14 x 10^3 iC3b per E) was 21%; the % rosette formation (erythrocytes, 37 x 10^3 iC3b per E) worked out at 39%; the % rosette formation (erythrocytes, 65 x 10^3 iC3b per E) was 60%; the % rosette formation (iC3b microspheres, erythrocytes, buffer) worked out at 75%. In assay [2], this substance had a % rosette formation (iC3b microspheres, monocytes, buffer) of 96%; a % rosette formation (monocytes treated with anti-Mac-1, 14 x 10^3 iC3b per E) of 20%; a % rosette formation (monocytes treated with anti-Mac-1, 65 x 10^3 iC3b per E) of 92%; a % rosette formation (neutrophils treated with anti-Mac-1, 14 x 10^3 iC3b per E) of 13%. The substance also yielded a % rosette formation (neutrophils treated with anti-Mac-1, 65 x 10^3 iC3b per E) in assay [2] of 100%. The substance also came in with a % rosette formation (iC3b microspheres, Raji cells, buffer) in assay [1] of 98%. In assay [7], this substance displayed a % rosette formation (erythrocytes, 14 x 10^3 iC3b per E) of 10%; a % rosette formation (erythrocytes, 37 x 10^3 iC3b per E) of 22%; a % rosette formation (erythrocytes, 65 x 10^3 iC3b per E) of 32%; a % rosette formation (monocytes treated with anti-Mac-1, 14 x 10^3 iC3b per E) of 13%. In assay [7], this substance returned a % rosette formation (monocytes treated with anti-Mac-1, 65 x 10^3 iC3b per E) of 81%; a % rosette formation (monocytes, 14 x 10^3 iC3b per E) of 18%; a % rosette formation (monocytes, 65 x 10^3 iC3b per E) of 85%; a % rosette formation (neutrophils treated with anti-Mac-1, 14 x 10^3 iC3b per E) of 9%. In assay [7], the % rosette formation (neutrophils treated with anti-Mac-1, 65 x 10^3 iC3b per E) is 86%; the % rosette formation (neutrophils, 14 x 10^3 iC3b per E) was found to be 11%; the % rosette formation (neutrophils, 37 x 10^3 iC3b per E) came to 84%; the % rosette formation (neutrophils, 65 x 10^3 iC3b per E) was 88%.
